Test results as given in paper PMC7596997.

Biological target: S. cerevisiae AAC2, P18239
Assay: binding of [35S]-labeled AAC2 to isolated mitochondria
Details: chain shown with the change, AAC2 lysate preincubated with apyrase, n = 3, read off a plot

Chain of S. cerevisiae AAC2, P18239 (P18239 whole entry, the tested form may be a part): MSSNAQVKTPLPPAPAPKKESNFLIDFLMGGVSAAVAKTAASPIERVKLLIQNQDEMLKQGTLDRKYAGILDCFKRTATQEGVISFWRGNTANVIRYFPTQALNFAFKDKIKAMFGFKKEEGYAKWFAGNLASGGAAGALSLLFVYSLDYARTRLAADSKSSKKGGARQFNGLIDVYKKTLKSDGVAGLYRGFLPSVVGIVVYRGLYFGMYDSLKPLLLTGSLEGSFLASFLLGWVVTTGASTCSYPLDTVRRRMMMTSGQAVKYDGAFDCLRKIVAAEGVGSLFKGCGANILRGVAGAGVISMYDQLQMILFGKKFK

other: bound protein, % of control (same mitochondria without NEM, 12 min) (mitochondria pretreated with 2 mM NEM, control = untreated Tom70C141A mitochondria at 12 min): 95 % of control | other: bound protein, % of control (same mitochondria without NEM, 12 min) (no NEM, this point is the normalisation control (100%), not a comparison with wild type): 100 % of control
B1: Tom70 in the outer membrane of isolated yeast mitochondria (wild type), P07213 C141A (protein)
chain: MKSFITRNKTAILATVAATGTAIGAYYYYNQLQQQQQRGKKNTINKDEKKDTKDSQKETEGAKKSTAPSNPPIYPVSSNGEPDFSNKANFTAEEKDKYALALKDKGNQFFRNKKYDDAIKYYNWALELKEDPVFYSNLSAAYVSVGDLKKVVEMSTKALELKPDYSKVLLRRASANEGLGKFADAMFDLSVLSLNGDFNDASIEPMLERNLNKQAMSKLKEKFGDIDTATATPTELSTQPAKERKDKQENLPSVTSMASFFGIFKPELTFANYDESNEADKELMNGLSNLYKRSPESYDKADESFTKAARLFEEQLDKNNEDEKLKEKLAISLEHTGIFKFLKNDPLGAHEDIKKAIELFPRVNSYIYMALIMADRNDSTEYYNYFDKALKLDSNNSSVYYHRGQMNFILQNYDQAGKDFDKAKELDPENIFPYIQLACLAYRENKFDDCETLFSEAKRKFPEAPEVPNFFAEILTDKNDFDKALKQYDLAIELENKLDGIYVGIAPLVGKATLLTRNPTVENFIEATNLLEKASKLDPRSEQAKIGLAQMKLQQEDIDEAITLFEESADLARTMEEKLQAITFAEAAKVQQRIRSDPVLAKKIQETLAKLREQGLM
